B1: CE115HA000 D73T one-arm antibody (antibody, human IgG1, kappa, L234A L235A, N297A, name in Kabat numbering)
heavy: QVQLVESGGGVVQPGRSLRLSCAASGFTFSNAWMHWVRQAPGKGLEWVAQIKAKSNNYATYYAESVKGRFTISRDTSKNSLYLQMNSLKTEDTAVYYCRYVHYGAYYGVDAWGQGTTVTVSSASTKGPSVFPLAPSSKSTSGGTAALGCLVKDYFPEPVTVSWNSGALTSGVHTFPAVLQSSGLYSLSSVVTVPSSSLGTQTYICNVNHKPSNTKVDKKVEPKSCDKTHTCPPCPAPEAAGGPSVFLFPPKPKDTLMISRTPEVTCVVVDVSHEDPEVKFNWYVDGVEVHNAKTKPREEQYASTYRVVSVLTVLHQDWLNGKEYKCKVSNKALPAPIEKTISKAKGQPREPQVYTLPPSRCELTKNQVSLSCAVKGFYPSDIAVEWESNGQPENNYKTTPPVLDSDGSFFLVSKLTVDKSRWQQGNVFSCSVMHEALHNHYTQKSLSLSPDYKDDDDK
chain: EPKSSDKTHTCPPCPAPELLGGPSVFLFPPKPKDTLMISRTPEVTCVVVDVSHEDPEVKFNWYVDGVEVHNAKTKPREEQYNSTYRVVSVLTVLHQDWLNGKEYKCKVSNKALPAPIEKTISKAKGQPREPQVCTLPPSRDELTKNQVSLWCLVKGFYPSDIAVEWESNGQPENNYKTTPPVLDSDGSFFLYSKLTVDKSRWQQGNVFSCSVMHEALHNRYTQKSLSLSP
light: DIVMTQSPLSLPVTPGEPASISCRSSQSLVHSNRNTYLHWYQQKPGQAPRLLIYKVSNRFSGVPDRFSGSGSGTDFTLKISRVEAEDVGVYYCGQGTQVPYTFGQGTKLEIKRTVAAPSVFIFPPSDEQLKSGTASVVCLLNNFYPREAKVQWKVDNALQSGNSQESVTEQDSKDSTYSLSSTLTLSKADYEKHKVYACEVTHQGLSSPVTKSFNRGEC
B2: CE115HA000 D101A one-arm antibody (antibody, human IgG1, kappa, L234A L235A, N297A, name in Kabat numbering)
heavy: QVQLVESGGGVVQPGRSLRLSCAASGFTFSNAWMHWVRQAPGKGLEWVAQIKAKSNNYATYYAESVKGRFTISRDDSKNSLYLQMNSLKTEDTAVYYCRYVHYGAYYGVAAWGQGTTVTVSSASTKGPSVFPLAPSSKSTSGGTAALGCLVKDYFPEPVTVSWNSGALTSGVHTFPAVLQSSGLYSLSSVVTVPSSSLGTQTYICNVNHKPSNTKVDKKVEPKSCDKTHTCPPCPAPEAAGGPSVFLFPPKPKDTLMISRTPEVTCVVVDVSHEDPEVKFNWYVDGVEVHNAKTKPREEQYASTYRVVSVLTVLHQDWLNGKEYKCKVSNKALPAPIEKTISKAKGQPREPQVYTLPPSRCELTKNQVSLSCAVKGFYPSDIAVEWESNGQPENNYKTTPPVLDSDGSFFLVSKLTVDKSRWQQGNVFSCSVMHEALHNHYTQKSLSLSPDYKDDDDK
chain: EPKSSDKTHTCPPCPAPELLGGPSVFLFPPKPKDTLMISRTPEVTCVVVDVSHEDPEVKFNWYVDGVEVHNAKTKPREEQYNSTYRVVSVLTVLHQDWLNGKEYKCKVSNKALPAPIEKTISKAKGQPREPQVCTLPPSRDELTKNQVSLWCLVKGFYPSDIAVEWESNGQPENNYKTTPPVLDSDGSFFLYSKLTVDKSRWQQGNVFSCSVMHEALHNRYTQKSLSLSP
light: DIVMTQSPLSLPVTPGEPASISCRSSQSLVHSNRNTYLHWYQQKPGQAPRLLIYKVSNRFSGVPDRFSGSGSGTDFTLKISRVEAEDVGVYYCGQGTQVPYTFGQGTKLEIKRTVAAPSVFIFPPSDEQLKSGTASVVCLLNNFYPREAKVQWKVDNALQSGNSQESVTEQDSKDSTYSLSSTLTLSKADYEKHKVYACEVTHQGLSSPVTKSFNRGEC
B3: CE115HA000 D101I one-arm antibody (antibody, human IgG1, kappa, L234A L235A, N297A, name in Kabat numbering)
heavy: QVQLVESGGGVVQPGRSLRLSCAASGFTFSNAWMHWVRQAPGKGLEWVAQIKAKSNNYATYYAESVKGRFTISRDDSKNSLYLQMNSLKTEDTAVYYCRYVHYGAYYGVIAWGQGTTVTVSSASTKGPSVFPLAPSSKSTSGGTAALGCLVKDYFPEPVTVSWNSGALTSGVHTFPAVLQSSGLYSLSSVVTVPSSSLGTQTYICNVNHKPSNTKVDKKVEPKSCDKTHTCPPCPAPEAAGGPSVFLFPPKPKDTLMISRTPEVTCVVVDVSHEDPEVKFNWYVDGVEVHNAKTKPREEQYASTYRVVSVLTVLHQDWLNGKEYKCKVSNKALPAPIEKTISKAKGQPREPQVYTLPPSRCELTKNQVSLSCAVKGFYPSDIAVEWESNGQPENNYKTTPPVLDSDGSFFLVSKLTVDKSRWQQGNVFSCSVMHEALHNHYTQKSLSLSPDYKDDDDK
chain: EPKSSDKTHTCPPCPAPELLGGPSVFLFPPKPKDTLMISRTPEVTCVVVDVSHEDPEVKFNWYVDGVEVHNAKTKPREEQYNSTYRVVSVLTVLHQDWLNGKEYKCKVSNKALPAPIEKTISKAKGQPREPQVCTLPPSRDELTKNQVSLWCLVKGFYPSDIAVEWESNGQPENNYKTTPPVLDSDGSFFLYSKLTVDKSRWQQGNVFSCSVMHEALHNRYTQKSLSLSP
light: DIVMTQSPLSLPVTPGEPASISCRSSQSLVHSNRNTYLHWYQQKPGQAPRLLIYKVSNRFSGVPDRFSGSGSGTDFTLKISRVEAEDVGVYYCGQGTQVPYTFGQGTKLEIKRTVAAPSVFIFPPSDEQLKSGTASVVCLLNNFYPREAKVQWKVDNALQSGNSQESVTEQDSKDSTYSLSSTLTLSKADYEKHKVYACEVTHQGLSSPVTKSFNRGEC
B4: CE115HA000 D101H one-arm antibody (antibody, human IgG1, kappa, L234A L235A, N297A, name in Kabat numbering)
heavy: QVQLVESGGGVVQPGRSLRLSCAASGFTFSNAWMHWVRQAPGKGLEWVAQIKAKSNNYATYYAESVKGRFTISRDDSKNSLYLQMNSLKTEDTAVYYCRYVHYGAYYGVHAWGQGTTVTVSSASTKGPSVFPLAPSSKSTSGGTAALGCLVKDYFPEPVTVSWNSGALTSGVHTFPAVLQSSGLYSLSSVVTVPSSSLGTQTYICNVNHKPSNTKVDKKVEPKSCDKTHTCPPCPAPEAAGGPSVFLFPPKPKDTLMISRTPEVTCVVVDVSHEDPEVKFNWYVDGVEVHNAKTKPREEQYASTYRVVSVLTVLHQDWLNGKEYKCKVSNKALPAPIEKTISKAKGQPREPQVYTLPPSRCELTKNQVSLSCAVKGFYPSDIAVEWESNGQPENNYKTTPPVLDSDGSFFLVSKLTVDKSRWQQGNVFSCSVMHEALHNHYTQKSLSLSPDYKDDDDK
chain: EPKSSDKTHTCPPCPAPELLGGPSVFLFPPKPKDTLMISRTPEVTCVVVDVSHEDPEVKFNWYVDGVEVHNAKTKPREEQYNSTYRVVSVLTVLHQDWLNGKEYKCKVSNKALPAPIEKTISKAKGQPREPQVCTLPPSRDELTKNQVSLWCLVKGFYPSDIAVEWESNGQPENNYKTTPPVLDSDGSFFLYSKLTVDKSRWQQGNVFSCSVMHEALHNRYTQKSLSLSP
light: DIVMTQSPLSLPVTPGEPASISCRSSQSLVHSNRNTYLHWYQQKPGQAPRLLIYKVSNRFSGVPDRFSGSGSGTDFTLKISRVEAEDVGVYYCGQGTQVPYTFGQGTKLEIKRTVAAPSVFIFPPSDEQLKSGTASVVCLLNNFYPREAKVQWKVDNALQSGNSQESVTEQDSKDSTYSLSSTLTLSKADYEKHKVYACEVTHQGLSSPVTKSFNRGEC
B5: CE115HA000 D101F one-arm antibody (antibody, human IgG1, kappa, L234A L235A, N297A, name in Kabat numbering)
heavy: QVQLVESGGGVVQPGRSLRLSCAASGFTFSNAWMHWVRQAPGKGLEWVAQIKAKSNNYATYYAESVKGRFTISRDDSKNSLYLQMNSLKTEDTAVYYCRYVHYGAYYGVFAWGQGTTVTVSSASTKGPSVFPLAPSSKSTSGGTAALGCLVKDYFPEPVTVSWNSGALTSGVHTFPAVLQSSGLYSLSSVVTVPSSSLGTQTYICNVNHKPSNTKVDKKVEPKSCDKTHTCPPCPAPEAAGGPSVFLFPPKPKDTLMISRTPEVTCVVVDVSHEDPEVKFNWYVDGVEVHNAKTKPREEQYASTYRVVSVLTVLHQDWLNGKEYKCKVSNKALPAPIEKTISKAKGQPREPQVYTLPPSRCELTKNQVSLSCAVKGFYPSDIAVEWESNGQPENNYKTTPPVLDSDGSFFLVSKLTVDKSRWQQGNVFSCSVMHEALHNHYTQKSLSLSPDYKDDDDK
chain: EPKSSDKTHTCPPCPAPELLGGPSVFLFPPKPKDTLMISRTPEVTCVVVDVSHEDPEVKFNWYVDGVEVHNAKTKPREEQYNSTYRVVSVLTVLHQDWLNGKEYKCKVSNKALPAPIEKTISKAKGQPREPQVCTLPPSRDELTKNQVSLWCLVKGFYPSDIAVEWESNGQPENNYKTTPPVLDSDGSFFLYSKLTVDKSRWQQGNVFSCSVMHEALHNRYTQKSLSLSP
light: DIVMTQSPLSLPVTPGEPASISCRSSQSLVHSNRNTYLHWYQQKPGQAPRLLIYKVSNRFSGVPDRFSGSGSGTDFTLKISRVEAEDVGVYYCGQGTQVPYTFGQGTKLEIKRTVAAPSVFIFPPSDEQLKSGTASVVCLLNNFYPREAKVQWKVDNALQSGNSQESVTEQDSKDSTYSLSSTLTLSKADYEKHKVYACEVTHQGLSSPVTKSFNRGEC
B6: CE115HA000 D101G one-arm antibody (antibody, human IgG1, kappa, L234A L235A, N297A, name in Kabat numbering)
heavy: QVQLVESGGGVVQPGRSLRLSCAASGFTFSNAWMHWVRQAPGKGLEWVAQIKAKSNNYATYYAESVKGRFTISRDDSKNSLYLQMNSLKTEDTAVYYCRYVHYGAYYGVGAWGQGTTVTVSSASTKGPSVFPLAPSSKSTSGGTAALGCLVKDYFPEPVTVSWNSGALTSGVHTFPAVLQSSGLYSLSSVVTVPSSSLGTQTYICNVNHKPSNTKVDKKVEPKSCDKTHTCPPCPAPEAAGGPSVFLFPPKPKDTLMISRTPEVTCVVVDVSHEDPEVKFNWYVDGVEVHNAKTKPREEQYASTYRVVSVLTVLHQDWLNGKEYKCKVSNKALPAPIEKTISKAKGQPREPQVYTLPPSRCELTKNQVSLSCAVKGFYPSDIAVEWESNGQPENNYKTTPPVLDSDGSFFLVSKLTVDKSRWQQGNVFSCSVMHEALHNHYTQKSLSLSPDYKDDDDK
chain: EPKSSDKTHTCPPCPAPELLGGPSVFLFPPKPKDTLMISRTPEVTCVVVDVSHEDPEVKFNWYVDGVEVHNAKTKPREEQYNSTYRVVSVLTVLHQDWLNGKEYKCKVSNKALPAPIEKTISKAKGQPREPQVCTLPPSRDELTKNQVSLWCLVKGFYPSDIAVEWESNGQPENNYKTTPPVLDSDGSFFLYSKLTVDKSRWQQGNVFSCSVMHEALHNRYTQKSLSLSP
light: DIVMTQSPLSLPVTPGEPASISCRSSQSLVHSNRNTYLHWYQQKPGQAPRLLIYKVSNRFSGVPDRFSGSGSGTDFTLKISRVEAEDVGVYYCGQGTQVPYTFGQGTKLEIKRTVAAPSVFIFPPSDEQLKSGTASVVCLLNNFYPREAKVQWKVDNALQSGNSQESVTEQDSKDSTYSLSSTLTLSKADYEKHKVYACEVTHQGLSSPVTKSFNRGEC

target: T1, CD3 epsilon homodimer protein (UniProt P07766 23-126); assay: SPR (Biacore T200), CD3 epsilon homodimer on CM4 chip, one-arm antibody as analyte, 25 C;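 further: homodimer attached to the sensor surface via amine coupling, HBS-EP+ used as running buffer during binding runs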
T1 construct: immobilized on Sensor chip CM4 by amine coupling; also called CD3 (CD3 epsilon)
T1 sequence (P07766 23-126): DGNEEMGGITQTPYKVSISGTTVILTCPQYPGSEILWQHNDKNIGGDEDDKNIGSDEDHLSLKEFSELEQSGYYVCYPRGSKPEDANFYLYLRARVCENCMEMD

First: B1
Second: B2
The “ratio of amounts bound (altered form / CE115HA000)” value of the first is lower: 0.63 for the first, 1.26 for the second.

Compared with B3, B4 is higher in “ratio of amounts bound (altered form / CE115HA000)” value: 1.18 for the first, 1.21 for the second.

Going from B5 to B6, the “ratio of amounts bound (altered form / CE115HA000)” value rises from 0.75 to 1.38.
